Measured values as given in PMC11077940.
Like-named read-outs stand apart in the source and are kept apart here.

What was measured:
[1] = target: ATP hydrolysis-deficient DctD, DctD_(H216R), prepared as a dephosphorylated form (d-DctD_(H216R)) (Vibrio vulnificus); experiment: SEC; d-DctD_(H216R) (alkaline phosphatase-treated) and d-IIA^Glc in 50 mM Tris-HCl pH 8.0, 20 mM KCl, 50 mM MgCl2, 100 mM NaCl applied to Superdex 200 Increase 10/300 GL; fractionated multimers used for the ATPase assay
[2] = target: ATP hydrolysis-deficient DctD, DctD_(H216R), prepared as a dephosphorylated form (d-DctD_(H216R)) (Vibrio vulnificus); experiment: as above; remark: listed apart in the source
[3] = target: phosphorylation-deficient DctD (DctD_(D57Q)) of Vibrio vulnificus (Vibrio vulnificus); experiment: SEC; GPC of mixtures of d-IIA^Glc and DctD_(D57Q) (20 µM each; also 5 µM + 20 µM and 20 µM + 5 µM); Superdex 200 Increase 10/300 GL, running buffer 50 mM Tris-HCl pH 8.0, 20 mM KCl, 50 mM MgCl2, 300 mM NaCl; fractions analysed by SDS-PAGE with densitometry against known amounts of each protein
[4] = target: phosphorylation-deficient DctD (DctD_(D57Q)) of Vibrio vulnificus (Vibrio vulnificus); experiment: SEC; GPC of recombinant DctD_(D57Q) alone; Superdex 200 Increase 10/300 GL, running buffer 50 mM Tris-HCl pH 8.0, 20 mM KCl, 50 mM MgCl2, 300 mM NaCl, 0.4 mL/min; size from a regression of standard proteins

Which stoichiometry N [1] does the source give for “ATP hydrolysis-deficient DctD, DctD_(H216R), prepared as a dephosphorylated form (d-DctD_(H216R)) (natural protein)” here?
The stoichiometry N was 12.

And the stoichiometry N [2]?
Its stoichiometry N is 2.

For “dephosphorylated form of the glucose-specific enzyme IIA (d-IIA^Glc) (natural protein)”, which stoichiometry N [3] is on record?
The stoichiometry N was 1 molar ratio.

For “phosphorylation-deficient DctD (DctD_(D57Q)) of Vibrio vulnificus (natural protein)”, which stoichiometry N [4] is on record?
The stoichiometry N was 2.
